Test results as given in paper PMC4569402.
Values joined by “and” are separate entries in the source; they are usually repeats but may differ in a detail not shown here. Equal entries are not always repeated.

Legend:
[1] = biological target: BNP with deletion of aa 1-38 (BNP-Δ38) (influenza B virus (B/panama/45/1990)); experiment: negative-stain electron microscopy
[2] = biological target: BNP with deletion of aa 1-66 (BNP-Δ66) (influenza B virus (B/panama/45/1990)); experiment: negative-stain electron microscopy

Row | Substance | stoichiometry N [1] | stoichiometry N [2]
1 | BNP with deletion of aa 1-38 (BNP-Δ38) (domain or fragment) | 4 and 5 | –
2 | BNP with deletion of aa 1-66 (BNP-Δ66) (domain or fragment) | – | 4 and 5
